Here are results for one molecule from PMC11773481.

The target in this assay is purified recombinant DPP9-FLAG, Q86TI2. Put plainly: SEC + native gel or EMSA; protein expressed alone in Expi293F, purified by anti-FLAG IP, Superdex 200 Increase 10/300 GL; BN-PAGE immunoblot. Conditions: remark: other sources report otherwise. In general terms: Mobility shift assays separate free from complexed probe on a gel.

B1: purified recombinant DPP9-FLAG, Q86TI2 1-863 (enzyme)
chain: MATTGTPTADRGDAAATDDPAARFQVQKHSWDGLRSIIHGSRKYSGLIVNKAPHDFQFVQKTDESGPHSHRLYYLGMPYGSRENSLLYSEIPKKVRKEALLLLSWKQMLDHFQATPHHGVYSREEELLRERKRLGVFGITSYDFHSESGLFLFQASNSLFHCRDGGKNGFMVSPMKPLEIKTQCSGPRMDPKICPADPAFFSFINNSDLWVANIETGEERRLTFCHQGLSNVLDDPKSAGVATFVIQEEFDRFTGYWWCPTASWEGSEGLKTLRILYEEVDESEVEVIHVPSPALEERKTDSYRYPRTGSKNPKIALKLAEFQTDSQGKIVSTQEKELVQPFSSLFPKVEYIARAGWTRDGKYAWAMFLDRPQQWLQLVLLPPALFIPSTENEEQRLASARAVPRNVQPYVVYEEVTNVWINVHDIFYPFPQSEGEDELCFLRANECKTGFCHLYKVTAVLKSQGYDWSEPFSPGEDEFKCPIKEEIALTSGEWEVLARHGSKIWVNEETKLVYFQGTKDTPLEHHLYVVSYEAAGEIVRLTTPGFSHSCSMSQNFDMFVSHYSSVSTPPCVHVYKLSGPDDDPLHKQPRFWASMMEAASCPPDYVPPEIFHFHTRSDVRLYGMIYKPHALQPGKKHPTVLFVYGGPQVQLVNNSFKGIKYLRLNTLASLGYAVVVIDGRGSCQRGLRFEGALKNQMGQVEIEDQVEGLQFVAEKYGFIDLSRVAIHGWSYGGFLSLMGLIHKPQVFKVAIAGAPVTVWMAYDTGYTERYMDVPENNQHGYEAGSVALHVEKLPNEPNRLLILHGFLDENVHFFHTNFLVSQLIRAGKPYQLQIYPNERHSIRCPESGEHYEVTLLHFLQEYL
As for B1, the stoichiometry N (usually the number of molecules, sites or subunits per partner or assembly) worked out at 2.
